The text below walks through data of article PMC12514245, “Impaired migration and lung invasion of human melanoma by a novel small molecule targeting the transmembrane domain of death receptor p75^NTR” (EMBO Molecular Medicine, 2025).

B1: p75^NTR TMD-AraTM chimera, wild type (MBP - p75^NTR TMD - AraC) [human] / itself (parent)
chain: NLIPVYCSILAAVVVGLVAYIAFKRW

In this assay the parent is B1. The experiment in a line: AraTM assay. The note with it: with itself, 100% = WT TMD without drug, read off a plot.

In the case of chain 1 V5A, the percent of parent is, setting by setting: (7.5 µM Div17E5) 92%; (15 µM Div17E5) 93%; (20 µM Div17E5) 95%; (50 µM Div17E5) 92%; (no drug (0 µM Div17E5)) 97%.

For chain 1 P4G, the percent of parent reads like this: (7.5 µM Div17E5) 68%; (15 µM Div17E5) 65%; (20 µM Div17E5) 55%; (50 µM Div17E5) 57%; (no drug (0 µM Div17E5)) 100%.

Turning to chain 1 I3A, the percent of parent (7.5 µM Div17E5) came out at 97%; the percent of parent (15 µM Div17E5) was 97%; the percent of parent (20 µM Div17E5) was 97%; the percent of parent (50 µM Div17E5) stood at 100%; the percent of parent (no drug (0 µM Div17E5)) worked out at 100%.
